44 molecules from US20240279318A1 (NANJING LEGEND BIOTECH, published 2024) can be followed below.

The chains are these.
B1: LE32T (scFv)
scFv: QSALTQPRSVSGSPGQSVTISCAGTSSDVGSTNYVSWYQQHPGKAPKLMIYQVNKRASGVPDRFSGSKSGNTASLTISGLQAEDEADYYCASYRSSDHNIVFGGGTKLTVLGGGGSGGGGSGGGGSEVQLVESGGGLVQPGGSLRLSCAASGFTFSSYAMSWVRQAPGKGLEWVSTINSGTGSPYYADSVKGRFTISRDNSKNTLYLQMNSLRAEDTAVYYCAKNFFDGSWFLGPPAMDYWGQGTLVTVSSHHHHHH
notes: AS170036 VL1VH1 scFv mutein
B2: LY34A (scFv)
scFv: B1 scFv with T32E, Y34A
notes: AS170036 VL1VH1 scFv mutein
B3: LY34L (scFv)
scFv: B1 scFv with T32E, Y34L
notes: AS170036 VL1VH1 scFv mutein
B4: LY34M (scFv)
scFv: B1 scFv with T32E, Y34M
notes: AS170036 VL1VH1 scFv mutein
B5: LY34V (scFv)
scFv: B1 scFv with T32E, Y34V
notes: AS170036 VL1VH1 scFv mutein
B6: LY34S (scFv)
scFv: B1 scFv with T32E, Y34S
notes: AS170036 VL1VH1 scFv mutein
B7: LY93H (scFv)
scFv: B1 scFv with T32E, Y93H
notes: AS170036 VL1VH1 scFv mutein
B8: LY93N (scFv)
scFv: B1 scFv with T32E, Y93N
notes: AS170036 VL1VH1 scFv mutein
B9: LY34P (scFv)
scFv: B1 scFv with T32E, Y34P
notes: AS170036 VL1VH1 scFv mutein
B10: LY34E (scFv)
scFv: B1 scFv with T32E, Y34E
notes: AS170036 VL1VH1 scFv mutein
B11: LE32I (scFv)
scFv: B1 scFv with T32I
notes: AS170036 VL1VH1 scFv mutein
B12: LE32V (scFv)
scFv: B1 scFv with T32V
notes: AS170036 VL1VH1 scFv mutein
B13: LE32A (scFv)
scFv: B1 scFv with T32A
notes: AS170036 VL1VH1 scFv mutein
B14: LY34G (scFv)
scFv: B1 scFv with T32E, Y34G
notes: AS170036 VL1VH1 scFv mutein
B15: LE32P (scFv)
scFv: B1 scFv with T32P
notes: AS170036 VL1VH1 scFv mutein
B16: LY93T (scFv)
scFv: B1 scFv with T32E, Y93T
notes: AS170036 VL1VH1 scFv mutein
B17: LD97Y (scFv)
scFv: B1 scFv with T32E, D97Y
notes: AS170036 VL1VH1 scFv mutein
B18: LE32H (scFv)
scFv: B1 scFv with T32H
notes: AS170036 VL1VH1 scFv mutein
B19: LY34F (scFv)
scFv: B1 scFv with T32E, Y34F
notes: AS170036 VL1VH1 scFv mutein
B20: LE32N (scFv)
scFv: B1 scFv with T32N
notes: AS170036 VL1VH1 scFv mutein
B21: LD97W (scFv)
scFv: B1 scFv with T32E, D97W
notes: AS170036 VL1VH1 scFv mutein
B22: LY34T (scFv)
scFv: B1 scFv with T32E, Y34T
notes: AS170036 VL1VH1 scFv mutein
B23: LY34D (scFv)
scFv: B1 scFv with T32E, Y34D
notes: AS170036 VL1VH1 scFv mutein
B24: LH98D (scFv)
scFv: B1 scFv with T32E, H98D
notes: AS170036 VL1VH1 scFv mutein
B25: LY93D (scFv)
scFv: B1 scFv with T32E, Y93D
notes: AS170036 VL1VH1 scFv mutein
B26: LE32Q (scFv)
scFv: B1 scFv with T32Q
notes: AS170036 VL1VH1 scFv mutein
B27: LH98K (scFv)
scFv: B1 scFv with T32E, H98K
notes: AS170036 VL1VH1 scFv mutein
B28: LE32M (scFv)
scFv: B1 scFv with T32M
notes: AS170036 VL1VH1 scFv mutein
B29: LY34I (scFv)
scFv: B1 scFv with T32E, Y34I
notes: AS170036 VL1VH1 scFv mutein
B30: LE32L (scFv)
scFv: B1 scFv with T32L
notes: AS170036 VL1VH1 scFv mutein
B31: HD102E (scFv)
scFv: B1 scFv with T32E, D228E
notes: AS170036 VL1VH1 scFv mutein
B32: HG56F (scFv)
scFv: B1 scFv with T32E, G182F
notes: AS170036 VL1VH1 scFv mutein; also called AS170036 VL1VH1-VHG56F
B33: HG56L (scFv)
scFv: B1 scFv with T32E, G182L
notes: AS170036 VL1VH1 scFv mutein
B34: HG56R (scFv)
scFv: B1 scFv with T32E, G182R
notes: AS170036 VL1VH1 scFv mutein
B35: HG56A (scFv)
scFv: B1 scFv with T32E, G182A
notes: AS170036 VL1VH1 scFv mutein
B36: HG56E (scFv)
scFv: B1 scFv with T32E, G182E
notes: AS170036 VL1VH1 scFv mutein
B37: HF101Y (scFv)
scFv: B1 scFv with T32E, F227Y
notes: AS170036 VL1VH1 scFv mutein
B38: HG56Q (scFv)
scFv: B1 scFv with T32E, G182Q
notes: AS170036 VL1VH1 scFv mutein
B39: HG56K (scFv)
scFv: B1 scFv with T32E, G182K
notes: AS170036 VL1VH1 scFv mutein
B40: HG56H (scFv)
scFv: B1 scFv with T32E, G182H
notes: AS170036 VL1VH1 scFv mutein
B41: HG56N (scFv)
scFv: B1 scFv with T32E, G182N
notes: AS170036 VL1VH1 scFv mutein; also called AS170036 VL1VH1-VHG56N
B42: HG56M (scFv)
scFv: B1 scFv with T32E, G182M
notes: AS170036 VL1VH1 scFv mutein
B43: HG56D (scFv)
scFv: B1 scFv with T32E, G182D
notes: AS170036 VL1VH1 scFv mutein
B44: HF101W (scFv)
scFv: B1 scFv with T32E, F227W
notes: AS170036 VL1VH1 scFv mutein

Residue numbers refer to the chain shown, from its start.

By Kd is commonly meant the constant that tells how readily two partners part at equilibrium.

The target of one experiment is T1, AFP158/HLA-A*02:01 complex (human).
T1 construct: flowed over the chip in SPR; also called AFP158 pro
The experiment can be described thus: SPR, KD ratio to AS170036 VL1VH1. A general note: SPR reads the build-up and loss of mass on a sensor chip optically.
Experimental: (§1) The experiment was carried out as follows. The crude scFv protein were captured onto the sensorchip. Different concentrations (320, 160, 40 nM) of AFP158/HLA-A*02:01 complex flowed over the sensorchip surface, and were allowed to bind the antibody fragment for 100 s followed by injection of the running buffer to allow dissociation of the complex. On-rate (kd) and off-rate (kd) were calculated based on association and dissociation curve, and were used to estimate the equilibrium dissociation constant (KD).
Take B1: the Affinity increase was determined as 0.3 fold.
As for B2, the Affinity increase turned out to be 0.1 fold.
As to B3, the Affinity increase is 0.3 fold.
With B4, the Affinity increase was 0.2 fold.
B5: the Affinity increase came to 0.3 fold.
On the same count and under the same terms, under B6 stands 0.2 fold.
Turning to B7, the Affinity increase was 0.4 fold.
For the molecule B8, the Affinity increase turned out to be 0.2 fold.
Same read-out and setting: under B9 stands 0.2 fold.
Regarding B10, the Affinity increase stood at 0.2 fold.
As for B11, the Affinity increase was 0.3 fold.
Regarding B12, the Affinity increase was determined as 0.3 fold.
In the case of B13, the Affinity increase came out at 0.3 fold.
For B14, the Affinity increase came out at 0.1 fold.
Turning to B15, the Affinity increase is 0.2 fold.
On the same count and under the same terms, under B16 stands 0.3 fold.
Turning to B17, the Affinity increase worked out at 0.4 fold.
B18: the Affinity increase turned out to be 0.3 fold.
On to B19, for which the Affinity increase was determined as 0.3 fold.
B20: the Affinity increase was 0.4 fold.
As to B21, the Affinity increase came to 0.4 fold.
As for B22, the Affinity increase was 0.1 fold.
Still for that read-out and setting: under B23 stands 0.3 fold; under B24, 0.2 fold; under B25, 0.2 fold.
For B26, the Affinity increase worked out at 0.4 fold.
With B27, the Affinity increase came to 0.2 fold.
Take B28: the Affinity increase is 0.4 fold.
As to B29, the Affinity increase was determined as 0.1 fold.
The same measure, in the same setting: the value for B30 was 0.3 fold.

For the next experiment, the target named is T1, AFP158/HLA-A*02:01 complex. The experiment can be described thus: SPR, scFv captured, pMHC in flow.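 Further: complex injected at several concentrations over crude scFv, association then running-buffer dissociation, KD estimated from kinetic on- and off-rate constants.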
For B1, binding was characterised by a dissociation constant (Kd) of 770 nM.
B2 registered a dissociation constant (Kd) of 1700 nM. This Kd is about 2.2-fold higher than that of the molecule before.
B3 displayed a dissociation constant (Kd) of 730 nM.
As to B4, the dissociation constant Kd worked out at 1100 nM.
Take B5: the Kd was 740 nM.
With B6, the Kd turned out to be 1000 nM. The Kd values of the last two molecules are within 1.5-fold of each other.
The molecule B7 came in with an equilibrium dissociation constant (Kd) of 620 nM. This Kd is about 1.6-fold lower than that of the molecule before.
In the case of B8, the Kd worked out at 1400 nM. Compared with the last molecule, the Kd is about 2.3-fold higher.
The molecule B9 registered a dissociation constant Kd of 1400 nM.
Molecule B10 returned a Kd of 1400 nM.
The molecule B11 had a dissociation constant (Kd) of 860 nM.
B12: the dissociation constant Kd came out at 930 nM.
On the same count and under the same terms, the value for B13 was 700 nM; that for B14 was 1700 nM.
Molecule B15 displayed a Kd of 1400 nM.
The molecule B16 came in with a dissociation constant Kd of 840 nM.
Same read-out and setting: the value for B17 was 570 nM; that for B18 was 830 nM; that for B19 was 780 nM.
On to B20, for which binding was put at a Kd of 690 nM.
Consider B21, for which the affinity, expressed as Kd, was 570 nM.
Same read-out and setting: under B22 stands 2200 nM; under B23, 740 nM; under B24, 1100 nM.
Regarding B25, the affinity, expressed as Kd, was 1200 nM.
For B26, binding was put at a Kd of 570 nM.
Still for that read-out and setting: the value for B27 was 1100 nM; that for B28 was 590 nM; that for B29 was 1800 nM.
Turning to B30, the Kd is 980 nM.

For another experiment, the target named is T1, AFP158/HLA-A*02:01 complex. As to the kind of experiment: SPR, KD ratio to AS170036 VL1VH1.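 Further: crude scFv captured on a sensor chip, peptide–HLA complex passed over at several concentrations, association then buffer dissociation, KD derived from on- and off-rates.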 This is another data set of the same source.
Experimental: as §1
In the case of B31, the Affinity increase came out at 1.2 fold.
As to B32, the Affinity increase was determined as 2.3 fold.
Turning to B33, the Affinity increase worked out at 0.8 fold.
On the same count and under the same terms, under B34 stands 0.8 fold.
The same measure, in the same setting: the value for B35 was 1.4 fold; that for B36 was 1 fold.
Take B37: the Affinity increase is 1.1 fold.
B38: the Affinity increase was found to be 1 fold.
On to B39, for which the Affinity increase stood at 0.7 fold.
Take B40: the Affinity increase is 1.5 fold.
Take B41: the Affinity increase is 2.5 fold.
Regarding B42, the Affinity increase worked out at 1.7 fold.
For B43, the Affinity increase was 1 fold.
Turning to B44, the Affinity increase amounted to 0.8 fold.

A further experiment concerns the target T1, AFP158/HLA-A*02:01 complex. As to the kind of experiment: SPR, scFv captured, pMHC in flow.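 Further: complex injected at several concentrations over crude scFv, association then running-buffer dissociation, KD estimated from kinetic on- and off-rate constants.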 This is another data set of the same source.
Experimental: as §1
Molecule B31 gave a Kd of 190 nM.
Same read-out and setting: under B32 stands 98 nM.
With B33, the dissociation constant Kd turned out to be 290 nM. This Kd is about 3-fold higher than that of the molecule before.
As for B34, the affinity, expressed as Kd, was 300 nM.
Regarding B35, the Kd stood at 160 nM. This Kd is about 1.9-fold lower than that of the molecule before.
Consider B36, for which the Kd was 240 nM.
For the molecule B37, the dissociation constant Kd is 210 nM.
Take B38: the Kd turned out to be 240 nM.
With B39, the equilibrium dissociation constant (Kd) was determined as 350 nM.
As for B40, binding was put at a Kd of 150 nM. Against the preceding molecule, the Kd is about 2.3-fold lower.
In turn, B41 gave a Kd of 92 nM.
Consider B42, for which binding was put at a Kd of 130 nM.
The same measure, in the same setting: under B43 stands 230 nM; under B44, 300 nM.
